Data reported in the RNAGym collection of RNA variant scans (doi:10.1073/pnas.2313332121).

B1: TPR t1 (parent)
chain: GACCAAUCUGCCCUCAGAGCUCGAGAACAUCUUCGGAUGCAGAGGAGGCAGGCUUCGGUGGCGCGAUAGCGCCAACGUCCUCAACCUCCAAUGCAUCCCACCACAUGAUGAUGCCUGAAGAGCCUUGGUUUUUUG

Variants of: B1
Experiment: polymerase ribozyme fitness, log enrichment relative to wild type (log ratio); higher = more active; in vitro selection for triplet polymerase activity
How it was run: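 A heterodimeric triplet polymerase ribozyme had each of its subunits mutagenized by PCR into a library, which was transcribed. One round of in vitro selection, done in triplicate, annealed each library with a biotinylated primer, its partner subunit and triplets, then incubated it frozen at −7 °C before gel excision of extended constructs, streptavidin-bead capture and RT-PCR. Fitness is the logarithm of genotype enrichment relative to wild-type enrichment, based on Illumina sequencing of inputs and outputs and inverse-variance-weighted replicate averages. A base-2 logarithm is used, and genotypes were kept only with ≥10 input reads and ≥1 read per output.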

Variant | polymerase ribozyme fitness (log ratio)
A27U C104U | -3.5
A29C G36U G45U | -4.64
A29U C99U U106A | -4.1
A29U U54G | -2.02
A27U C49U A90G G93U | -3.23
A29G G47C C53A U59A | -2.24
A29U G69U C123A | -0.777
A29G G52U | -1.55
U30C G44U A50G C88U | -2.96
C31A A43G U59G C98G A100G A111G | -6.13
C31U C49A C123U C124U | -4.12
C31U C72U | -4.57
C31U C72A | -4.11
A29C A41G | -2.15
C28U G71C U87G | -3.85
A27G C86U C94U | -1.98
C28A G44U U78G G113A | -4.24
C28U C34U C73G C102U G110A | -0.0797
C28U C82A C94A U125G | -4.37
C28U U112A G122A U129A | -6.54
A29U A46C G48A A84C | -3.31

Variant | polymerase ribozyme fitness (log ratio)
A27G G42U A75G | -3.6
C28U C80A | -5.53
U30A A37U | -4.9
C28U A41U G48A | -5.18
A29U G42C G69U A119U | -2.46
A29U A41C A119G C123G | -1.43
A29G G57U G128C | -3.73
A29G G69C G120A | -2.54
U30A G48C C124A | -5.2
A27U G69U | -1.45
A27U C40U C82A | -3.5
A29G C104U U112G | 1.06
C28A C72A C123G U126C | -2
A27U G60U G63A U109A C124U | -6.47
C28U C70A | -4.5
C28U G63C | -3.08
U30G G48A C49U C62U C85A A121G | -6.22
C28U G60C | -3.11
A29C G57A C62U | -3.66
C28U G39A | -2.12
A29G U32A U55C | -5.1

Variant | polymerase ribozyme fitness (log ratio)
C28U G110A | 0.874
A27U A37G G48A C72G A83U U130A | -4.93
C28U C49A G61U C86U | -2.72
C28G G61A G113C | -5.25
U30A A111U | -4.14
A27U G60U G61C | -5.43
A29G A74U | -1.73
A27U U30A G61U C72U A84C C98G A111U | -8.22
A29U C56U C73U | -1.33
A29G U87A | -1.67
A27U C53G A66G | -4.36
A27U U81C G120A G135A | -4.49
C31U A37G C115A | -4.73
A27U G107A A121U G128U G135C | -3.88
A29G C73A C76A | -3.61
C28U C115U | -3.6
A29G G61C | -2.51
C28A G42A G77C G110U | -1.22
C31A G57A C73U | -6.14
A29U C53U C56U G69U G93C | -3.98
U30C C70U | -2.92

Variant | polymerase ribozyme fitness (log ratio)
C31A A37U G60A A83C | -7.59
A27U C88A | -4.4
C28G C56A | -1.87
U30C A41G | -3.33
A29U C53A | -1.37
A27U C94U U106A G110U | -2.09
A29U G52C C73G U129A | -4.18
A29U C70G | -3.31
C28U C56U | -1.85
A29C C40U A41U C124U | -3.03
C28A C64U C70A C99U G110U G120C U132A | -7.34
C31U C70U | -4.33
A29U G61A C73U | -1.74
C31G U109G C114G | -6.93
A29G A37G C88U A111C | -0.788
C28G C62G | -4.58
A29C A41C C56G U59A G69U C82U A121C G135C | -6.04
C28A A43U | -5.18
C31A C56A C98A | -5.09
C28G G48U | -3.56
A29G C73U C114A | -1.97
